{
  "source": "patent US20220332804A1",
  "about": "(CSL INNOVATION, published 2022)",
  "binders": {"B1": {"name": "RF16-226 (antibody, human IgG4 S228P, lambda)", "heavy": "not shown", "light": "SYELTQPPSVSVSPGQTARITCSGDALTSKYVAWYQQKSGLAPLLVIYEDTRRPSGIPAKFSGSSSGSVATLTISGAHGDDEADYYCYSTDASGHQRVFGGGTKLTVLSQPKAAPSVTLFPPSSEELQANKATLVCLISDFYPGAVTVAWKADGSPVKAGVETTKPSKQSNNKYAASSYLSLTPEQWKSHRSYSCQVTHEGSTVEKTVAPTECS", "notes": "pH-dependent anti-C2 antibody from a phage display library; also called WT"}},
  "assay_in_all_cases": "SPR, antibody captured, C2 as analyte;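 further: biacore SPR at 37 °C, anti-C2 mAbs captured via goat anti-human IgG on CM5 chips, double-referenced sensorgrams fit to a 1:1 kinetic or steady-state model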",
  "key": {"[1]": {"biological_target": "T1, human C2 K550A (human, UniProt P06681 21-752)", "T1 sequence": "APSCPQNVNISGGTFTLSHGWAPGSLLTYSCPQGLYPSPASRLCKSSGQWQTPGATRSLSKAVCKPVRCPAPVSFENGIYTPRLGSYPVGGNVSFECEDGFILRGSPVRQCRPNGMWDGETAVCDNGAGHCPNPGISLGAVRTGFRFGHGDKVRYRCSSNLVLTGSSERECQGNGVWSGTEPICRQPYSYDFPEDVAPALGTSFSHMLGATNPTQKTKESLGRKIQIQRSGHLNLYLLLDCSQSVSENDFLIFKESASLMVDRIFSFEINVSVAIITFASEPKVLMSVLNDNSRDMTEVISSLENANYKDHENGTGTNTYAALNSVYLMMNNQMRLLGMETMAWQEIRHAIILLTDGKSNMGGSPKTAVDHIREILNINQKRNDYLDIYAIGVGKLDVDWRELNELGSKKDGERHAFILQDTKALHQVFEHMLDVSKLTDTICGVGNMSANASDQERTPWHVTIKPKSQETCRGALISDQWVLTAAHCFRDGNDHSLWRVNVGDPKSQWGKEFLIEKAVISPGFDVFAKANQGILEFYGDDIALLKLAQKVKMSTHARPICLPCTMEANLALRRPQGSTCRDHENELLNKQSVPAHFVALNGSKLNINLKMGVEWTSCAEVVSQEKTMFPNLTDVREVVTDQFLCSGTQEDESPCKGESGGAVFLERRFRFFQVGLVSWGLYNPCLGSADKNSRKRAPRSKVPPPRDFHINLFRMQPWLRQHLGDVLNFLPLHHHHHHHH"}, "[2]": {"biological_target": "T2, human C2 N621A (human, UniProt P06681 21-752)", "T2 sequence": "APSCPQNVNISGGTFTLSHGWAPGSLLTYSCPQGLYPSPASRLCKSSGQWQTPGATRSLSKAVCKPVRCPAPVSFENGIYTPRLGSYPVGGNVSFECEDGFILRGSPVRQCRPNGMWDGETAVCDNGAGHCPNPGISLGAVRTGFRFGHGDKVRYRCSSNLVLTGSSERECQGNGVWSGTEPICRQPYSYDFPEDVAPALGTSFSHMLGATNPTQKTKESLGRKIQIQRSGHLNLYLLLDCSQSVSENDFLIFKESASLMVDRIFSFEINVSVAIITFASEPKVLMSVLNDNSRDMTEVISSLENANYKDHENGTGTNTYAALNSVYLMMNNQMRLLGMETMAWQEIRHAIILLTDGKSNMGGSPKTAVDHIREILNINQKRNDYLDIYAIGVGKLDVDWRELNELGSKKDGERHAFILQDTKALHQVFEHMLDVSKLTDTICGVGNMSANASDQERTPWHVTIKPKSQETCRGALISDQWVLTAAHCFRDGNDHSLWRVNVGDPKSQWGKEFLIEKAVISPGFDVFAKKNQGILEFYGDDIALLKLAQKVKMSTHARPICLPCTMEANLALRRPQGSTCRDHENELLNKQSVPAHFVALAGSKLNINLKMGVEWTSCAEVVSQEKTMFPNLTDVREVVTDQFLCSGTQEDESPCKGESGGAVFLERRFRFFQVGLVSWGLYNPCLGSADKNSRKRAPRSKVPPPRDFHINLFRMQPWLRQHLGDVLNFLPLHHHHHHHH"}, "[3]": {"biological_target": "T3, human C2 V722A (human, UniProt P06681 21-752)", "T3 sequence": "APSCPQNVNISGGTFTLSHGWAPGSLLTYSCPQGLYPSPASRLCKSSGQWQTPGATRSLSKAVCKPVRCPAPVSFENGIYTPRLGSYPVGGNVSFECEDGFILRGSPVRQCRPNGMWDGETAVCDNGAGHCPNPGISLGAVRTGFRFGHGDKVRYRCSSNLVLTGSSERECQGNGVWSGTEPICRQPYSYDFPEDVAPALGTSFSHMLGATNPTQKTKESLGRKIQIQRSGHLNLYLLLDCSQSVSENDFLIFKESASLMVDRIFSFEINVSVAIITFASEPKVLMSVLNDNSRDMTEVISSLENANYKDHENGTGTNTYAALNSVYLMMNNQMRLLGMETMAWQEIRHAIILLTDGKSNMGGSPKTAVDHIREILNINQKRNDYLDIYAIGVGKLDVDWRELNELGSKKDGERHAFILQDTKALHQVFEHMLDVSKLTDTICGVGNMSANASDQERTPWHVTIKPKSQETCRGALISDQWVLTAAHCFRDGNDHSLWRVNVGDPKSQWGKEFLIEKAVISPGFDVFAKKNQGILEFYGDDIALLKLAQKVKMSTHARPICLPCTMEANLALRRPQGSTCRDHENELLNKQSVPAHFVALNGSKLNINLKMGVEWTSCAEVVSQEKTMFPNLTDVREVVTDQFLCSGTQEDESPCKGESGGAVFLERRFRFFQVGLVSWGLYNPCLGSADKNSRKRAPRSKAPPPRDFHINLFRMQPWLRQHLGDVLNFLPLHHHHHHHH"}, "[4]": {"biological_target": "T4, human C2 N327A (human, UniProt P06681 21-752)", "T4 sequence": "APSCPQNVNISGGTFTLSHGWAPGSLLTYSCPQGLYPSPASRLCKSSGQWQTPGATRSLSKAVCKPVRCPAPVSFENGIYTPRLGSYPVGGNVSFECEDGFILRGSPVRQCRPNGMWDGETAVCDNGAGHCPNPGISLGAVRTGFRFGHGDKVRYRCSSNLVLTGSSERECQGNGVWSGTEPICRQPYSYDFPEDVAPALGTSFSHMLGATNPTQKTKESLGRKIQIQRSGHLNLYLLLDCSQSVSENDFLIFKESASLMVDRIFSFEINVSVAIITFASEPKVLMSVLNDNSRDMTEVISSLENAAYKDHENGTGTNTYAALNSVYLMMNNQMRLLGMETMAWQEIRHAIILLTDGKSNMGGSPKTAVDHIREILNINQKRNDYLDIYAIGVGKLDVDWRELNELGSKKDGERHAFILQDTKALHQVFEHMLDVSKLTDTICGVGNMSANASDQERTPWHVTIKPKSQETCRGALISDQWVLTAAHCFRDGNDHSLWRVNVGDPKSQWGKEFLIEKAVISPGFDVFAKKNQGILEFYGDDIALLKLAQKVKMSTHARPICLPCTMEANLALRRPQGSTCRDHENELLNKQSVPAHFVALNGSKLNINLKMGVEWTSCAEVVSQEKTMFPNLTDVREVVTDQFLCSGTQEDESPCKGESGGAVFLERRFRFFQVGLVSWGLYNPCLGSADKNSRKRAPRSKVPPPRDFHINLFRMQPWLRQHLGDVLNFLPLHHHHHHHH"}},
  "data": [
    {"binder": "B1", "values": [
      {"measurement": "Kd", "setting": "[1]", "result": 15, "unit": "nM"},
      {"measurement": "Kd", "setting": "[2]", "result": 51.5, "unit": "nM"},
      {"measurement": "Kd", "setting": "[3]", "result": 95.2, "unit": "nM"},
      {"measurement": "Kd", "setting": "[4]", "result": 67.4, "unit": "nM"}
    ]}
  ]
}
